Reference: publication PMC8606531, “The Impact of Rare Human Variants on Barrier-To-Auto-Integration Factor 1 (Banf1) Structure and Function”

Legend:
Assay in all cases: EMSA; EC50; 10 mM KH2PO4, 100 mM NaCl, 0.01% IGEPAL, 5 nM Cy5 DNA, 30 min at 37 C; pH not stated; 8% gel in 1x TBE at 4 C
Conditions in all cases: protein: recombinant; tags: N-terminal His6 (pET-28a NdeI-XhoI); chain copies: 2; label: 5' Cy5 on forward strand; blunt
Banf1 H7Y = molecular target: T1, Banf1 H7Y (Homo sapiens, UniProt O75531 1-89, H7Y)
T1 sequence: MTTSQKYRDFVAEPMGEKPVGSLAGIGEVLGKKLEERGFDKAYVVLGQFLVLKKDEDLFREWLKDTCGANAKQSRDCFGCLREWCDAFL

Banf1 N70T = molecular target: T2, Banf1 N70T (Homo sapiens, UniProt O75531 1-89, N70T)
T2 sequence: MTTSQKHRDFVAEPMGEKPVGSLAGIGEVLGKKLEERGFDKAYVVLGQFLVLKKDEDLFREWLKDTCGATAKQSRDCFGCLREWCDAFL

Banf1 R75W = molecular target: T3, Banf1 R75W (Homo sapiens, UniProt O75531 1-89, R75W)
T3 sequence: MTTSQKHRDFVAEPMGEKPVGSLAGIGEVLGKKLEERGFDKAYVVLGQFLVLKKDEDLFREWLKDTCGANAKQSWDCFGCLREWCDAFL

B1: Cy5 40 bp dsDNA (dsDNA)
DNA 1: AGGAGCGCCAGACCCACCAAGAGCCCTCTATCGGTTGGGA
DNA 2: TCCCAACCGATAGAGGGCTCTTGGTGGGTCTGGCGCTCCT
- apparent K (half saturation) (Banf1 H7Y): 26.1 ± 5.02 nM
- apparent K (half saturation) (Banf1 N70T): 34.9 ± 4.38 nM
- apparent K (half saturation) (Banf1 R75W): 27.8 ± 3.17 nM
